Data reported in patent publication US20200399394A1 (published 2020).
Positions count from the first letter of the chain named.

T1: human CD39 (ectonucleoside triphosphate diphosphohydrolase 1) (UniProt P49961 1-510)
T1 chain: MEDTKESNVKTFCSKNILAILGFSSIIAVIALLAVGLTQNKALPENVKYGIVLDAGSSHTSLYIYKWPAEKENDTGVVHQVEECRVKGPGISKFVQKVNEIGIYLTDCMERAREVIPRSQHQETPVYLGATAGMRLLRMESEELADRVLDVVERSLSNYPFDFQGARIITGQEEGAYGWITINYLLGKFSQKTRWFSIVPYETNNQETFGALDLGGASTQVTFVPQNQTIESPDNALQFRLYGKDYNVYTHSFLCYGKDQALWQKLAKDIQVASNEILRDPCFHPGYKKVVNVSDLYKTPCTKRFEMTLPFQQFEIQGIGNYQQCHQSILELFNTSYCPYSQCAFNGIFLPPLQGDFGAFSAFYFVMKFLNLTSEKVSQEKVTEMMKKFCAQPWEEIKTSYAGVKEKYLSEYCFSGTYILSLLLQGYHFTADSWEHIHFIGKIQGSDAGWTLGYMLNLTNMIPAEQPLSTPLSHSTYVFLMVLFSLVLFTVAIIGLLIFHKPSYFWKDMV

B1: SRF360-C (antibody, V domains shown)
VH: EVQLVESGGGLVKPGGSLRLSCAASGFTFSSYRMNWVRQAPGKGLEWVSSISSSSSSIWYADSVKGRFTISRDNAKNSLYLQMNSLRAEDTAVYYCAKGPRYDSSGYRWRYGMDVWGQGTTVTVSS
VL: DIQMTQSPSSLSASVGDRVTITCRASQSISSYLNWYQQKPGKAPKLLIYAASSLQSGVPSRFSGSGSGTDFTLTISSLQPEDFATYYCQQLYVDPPWTFGGGTKVEIKR
B2: SRF365-C (antibody, V domains shown)
VH: QVQLVQSGAEVKKPGSSVKVSCKASGGTFSDKAISWVRQAPGQGLEWMGSILPIFGTANYAQKFQGRVTITADESTSTAYMELSSLRSEDTAVYYCAREAGYYRYRYFDLWGRGTLVTVSS
VL: EIVMTQSPATLSVSPGERATLSCRASQSVSSNLAWYQQKPGQAPRLLIYGASTRATGIPARFSGSGSGTEFTLTISSLQSEDFAVYYCQQHALWPLTFGGGTKVEIKR
B3: SRF367-C (antibody, V domains shown)
VH: B2 VH with D31S, K32E, A33G, R113K
VL: B2 VL
B4: SRF360-C (antibody, V domains shown)
VH: B1 VH
VL: B1 VL
B5: SRF370-C (antibody, V domains shown)
VH: QVQLVQSGAEVKKPGSSVKVSCKASGGTFSTYAIGWVRQAPGQGLEWMGGIIPAFGTANYAQKFQGRVTITADESTSTAYMELSSLRSEDTAVYYCARDPVRRSPFDIWGQGTMVTVSS
VL: EIVLTQSPATLSLSPGERATLSCRASQSVSSYLAWYQQKPGQAPRLLIYDSSNRATGIPARFSGSGSGTDFTLTISSLEPEDFAVYYCQQSFLWPRTFGGGTKVEIKR
B6: SRF367-C (antibody, V domains shown)
VH: B2 VH with D31S, K32E, A33G, R113K
VL: B2 VL
B7: SRF365-C (antibody, V domains shown)
VH: B2 VH
VL: B2 VL

Molecular target: T1, human CD39 (ectonucleoside triphosphate …)
Test: MSD equilibrium; Fab

Kd [nM]	Binder
0.044	B1
0.051	B2
0.24	B3

Molecular target: T1, human CD39 (ectonucleoside triphosphate …)
Test: ForteBio (BLI); IgG, monovalent

Kd [nM]	Binder
0.772	B4
2.59	B5
1.57	B6
0.556	B7
